Test results published in patent US20250302956A1.

Key:
Test in all cases: cell-based or functional assay
[1] = target: LAMWITQC (SEQ ID NO: 2) presented by HLA-A02 on T2 cells (human)
[2] = target: NY-ESO-1 peptide … (SEQ ID NO: 40) presented by HLA-A02 on T2 cells (human)
[3] = target: LLMWITQC (SEQ ID NO: 1) presented by HLA-A02 on T2 cells (human)

average log 2FC in PresentER library coculture screen, CD8-native 1G4-α95: TS cells (log2 fold change) [1]: -4
average log 2FC in PresentER library coculture screen, CD8-native 1G4-α95: TS cells (log2 fold change) [2]: -6.1
average log 2FC in PresentER library coculture screen, CD8-native 1G4-α95: TS cells (log2 fold change) [3]: -5
Substance: native 1G4-α95: TS TCR
